B1: TRIM43 (parent)
chain: RAQMIRNEYRKLHPVLHKEEKQHL
B2: EHMT1 (parent)
chain: EEINKNISDFGRQQLLPPFPSLHQ
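Also: lentivirally expressed fusions sorted by FACS into six bins by GFP to DsRed ratio, PSI derived from sequencing read proportions per bin multiplied by bin number.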

The first series covers variants of B1. In words: protein stability index of a GFP-peptide fusion (GPS, HEK-293T) (PSI 1-6); higher = more stable. The note with it: c terminus: a fixed tail appended.
As to RAQMIRNEARKLHPVLHKEEKQHL [Y9A], the protein stability index was 4.04.
Same read-out and setting: the value for RAQMIRNETRKLHPVLHKEEKQHL [Y9T] was 4.08; that for RAQMIRNESRKLHPVLHKEEKQHL [Y9S] was 3.46.
Still for that read-out and setting: the value for RAQMIRNEYRKLHPVLHKESKQHL [E20S] was 2.85.
Regarding RAQMIRNEYRKLHPVLHKEGKQHL [E20G], the protein stability index is 2.29.
With RAQMIRNEYRKLHPVLHKEIKQHL [E20I], the protein stability index worked out at 2.42.
Still for that read-out and setting: with RAQMIRNEYRKLHPVLHKERKQHL [E20R] the figure was 1.83; with RAQMIRNEYRKLHPKLHKEEKQHL [V15K], 3.29.
For the variant RAQMIRNEYRKLHPELHKEEKQHL [V15E], the protein stability index came out at 3.5.
Still for that read-out and setting: with RAQMIRNEYRKLHPTLHKEEKQHL [V15T] the figure was 3.13; with RAQMGRNEYRKLHPVLHKEEKQHL [I5G], 3.79; with RAQMMRNEYRKLHPVLHKEEKQHL [I5M], 3.39.
Regarding RAQAIRNEYRKLHPVLHKEEKQHL [M4A], the protein stability index is 3.49.
Still for that read-out and setting: the value for RAQNIRNEYRKLHPVLHKEEKQHL [M4N] was 3.45; that for RAQQIRNEYRKLHPVLHKEEKQHL [M4Q] was 2.8.
On the same count and under the same terms, the value for RAQMIRNEYRKLHPVLHKYEKQHL [E19Y] was 1.97; that for RAQMIRNEYRKLAPVLHKEEKQHL [H13A] was 3.46.
As to RAQMIRNEYRKLWPVLHKEEKQHL [H13W], the protein stability index turned out to be 2.61.
Take RAQMIRNMYRKLHPVLHKEEKQHL [E8M]: the protein stability index worked out at 2.2.
RAQMIRNIYRKLHPVLHKEEKQHL [E8I]: the protein stability index is 2.39.
On the same count and under the same terms, with RAQMIRNSYRKLHPVLHKEEKQHL [E8S] the figure was 2.91.
Still for that read-out and setting: with RAQMICNEYRKLHPVLHKEEKQHL [R6C] the figure was 3.67; with RAQMIWNEYRKLHPVLHKEEKQHL [R6W], 1.77.
As for RAQMIRNEYRKLHPVLHKEENQHL [K21N], the protein stability index turned out to be 2.77.
As for RAQMIRNEYRKLHPVLHKEEDQHL [K21D], the protein stability index worked out at 3.82.
Still for that read-out and setting: with RAQMIRNEYRKLHPVLHKEEEQHL [K21E] the figure was 4.63; with RAQMIRNEYRKLHPVDHKEEKQHL [L16D], 4.12.
Still for that read-out and setting: with RAQMIRNEYRKLHPVNHKEEKQHL [L16N] the figure was 3.95.
With RAQMIRNEYRKLHPVCHKEEKQHL [L16C], the protein stability index was determined as 2.71.
In the case of RAQMIRNEYRKLHPVYHKEEKQHL [L16Y], the protein stability index was 2.52.
As for RAQMIRNEYRWLHPVLHKEEKQHL [K11W], the protein stability index is 3.14.
With RAQMIRNEYRFLHPVLHKEEKQHL [K11F], the protein stability index amounted to 3.24.
Still for that read-out and setting: with RAQMIRNEYRKLHPVLWKEEKQHL [H17W] the figure was 2.8; with RAQMIRNEYRKLHPVLNKEEKQHL [H17N], 3.28.
Same read-out and setting: with RAQMIRNEYRKLHPVLLKEEKQHL [H17L] the figure was 2.93; with RAQMIRNEYRKAHPVLHKEEKQHL [L12A], 3.67; with RAQMIRNEYRKLHPVLHPEEKQHL [K18P], 3.48.
On the same count and under the same terms, with RAQMIRNEYRKLHPVLHEEEKQHL [K18E] the figure was 4.06; with RAQMIRNEYRKLHPVLHMEEKQHL [K18M], 2.6; with RAQMIRNEYRKLHPVLHYEEKQHL [K18Y], 3.09.
Regarding RAQMIRNEYNKLHPVLHKEEKQHL [R10N], the protein stability index is 3.66.
With RAQMIRNEYRKLHWVLHKEEKQHL [P14W], the protein stability index worked out at 2.51.
RAQMIRNEYRKLHSVLHKEEKQHL [P14S]: the protein stability index is 2.04.
Consider RAQMIRNEYRKLHIVLHKEEKQHL [P14I], for which the protein stability index is 2.44.
Take RAQMIRNEYRKLHLVLHKEEKQHL [P14L]: the protein stability index worked out at 3.51.
Consider RAQMIRNEYRKLHNVLHKEEKQHL [P14N], for which the protein stability index was 2.64.
Turning to RAQMIRNEYRKLHRVLHKEEKQHL [P14R], the protein stability index was determined as 3.23.
Regarding RAQMIRNEYRKLHPVLHKEEKFHL [Q22F], the protein stability index amounted to 1.86.
For RAQMIRNEYRKLHPVLHKEEKPHL [Q22P], the protein stability index stood at 3.47.

Variants of B2 are the subject of the next series. Described as above. To be noted: c terminus: a fixed tail appended.
On to EEINKNISDAGRQQLLPPFPSLHQ [F10A], for which the protein stability index worked out at 3.04.
Take EEINKNISDYGRQQLLPPFPSLHQ [F10Y]: the protein stability index came out at 3.11.
The same measure, in the same setting: the value for EEINKNISDNGRQQLLPPFPSLHQ [F10N] was 3.24; that for EEINKNISDFGRQQLLPPFPILHQ [S21I] was 2.62; that for EEINKNISMFGRQQLLPPFPSLHQ [D9M] was 2.02.
Same read-out and setting: the value for EEINYNISDFGRQQLLPPFPSLHQ [K5Y] was 2.13; that for EEININISDFGRQQLLPPFPSLHQ [K5I] was 2.51.
On to EEINNNISDFGRQQLLPPFPSLHQ [K5N], for which the protein stability index stood at 3.28.
Turning to EEINWNISDFGRQQLLPPFPSLHQ [K5W], the protein stability index was found to be 2.6.
Same read-out and setting: with EEINKNISDFGRQQLLPPFKSLHQ [P20K] the figure was 3.3; with EEINKNISDFGRQQLLPPFSSLHQ [P20S], 3.22.
With EEINKNISDFGRPQLLPPFPSLHQ [Q13P], the protein stability index is 3.4.
Turning to EEINKNISDFGRAQLLPPFPSLHQ [Q13A], the protein stability index amounted to 3.2.
For EELNKNISDFGRQQLLPPFPSLHQ [I3L], the protein stability index was determined as 2.95.
In the case of EESNKNISDFGRQQLLPPFPSLHQ [I3S], the protein stability index worked out at 3.13.
On the same count and under the same terms, the value for LEINKNISDFGRQQLLPPFPSLHQ [E1L] was 2.42; that for EEIRKNISDFGRQQLLPPFPSLHQ [N4R] was 2.73; that for EEIGKNISDFGRQQLLPPFPSLHQ [N4G] was 2.48.
Consider EEITKNISDFGRQQLLPPFPSLHQ [N4T], for which the protein stability index worked out at 2.33.
Still for that read-out and setting: with EEINKNISDFGRQHLLPPFPSLHQ [Q14H] the figure was 2.29; with EEINKNISDFGRQDLLPPFPSLHQ [Q14D], 2.84.
Still for that read-out and setting: with EEINKNISDFGRQCLLPPFPSLHQ [Q14C] the figure was 2.18; with EEINKNISDFGRQYLLPPFPSLHQ [Q14Y], 1.78; with EEINKNISDFGRQLLLPPFPSLHQ [Q14L], 2.31.
Consider EEINKNISDFGRQQALPPFPSLHQ [L15A], for which the protein stability index was 2.81.
On to EEINKNISDFGRQQNLPPFPSLHQ [L15N], for which the protein stability index amounted to 2.87.
Same read-out and setting: the value for EEINKNISDFGRQQELPPFPSLHQ [L15E] was 3.65; that for EEINKNISDFGRQQLKPPFPSLHQ [L16K] was 3.05; that for EEINKNISDFGRQQLQPPFPSLHQ [L16Q] was 3.83.
In the case of EEINKNISDFGRQQLFPPFPSLHQ [L16F], the protein stability index came to 2.42.
As to EEINKNPSDFGRQQLLPPFPSLHQ [I7P], the protein stability index turned out to be 2.38.
Take EEINKNISDFGRQQLLPAFPSLHQ [P18A]: the protein stability index was determined as 3.28.
In the case of EEINKNISDFGRQQLLPPLPSLHQ [F19L], the protein stability index turned out to be 3.54.
The same measure, in the same setting: the value for EEINKNISDFGRQQLLPPFPSIHQ [L22I] was 3.18; that for EEINKNISDFGVQQLLPPFPSLHQ [R12V] was 3.25; that for EEINKNISDFGLQQLLPPFPSLHQ [R12L] was 2.74.
On the same count and under the same terms, the value for EEINKNISDFGYQQLLPPFPSLHQ [R12Y] was 2.86.
On the same count and under the same terms, with EEINKNISDFGAQQLLPPFPSLHQ [R12A] the figure was 3.2.
In the case of EEINKNISDFGKQQLLPPFPSLHQ [R12K], the protein stability index came to 3.06.
With EMINKNISDFGRQQLLPPFPSLHQ [E2M], the protein stability index is 2.24.
Take EEINKNISDFGRQQLLPPFPSLGQ [H23G]: the protein stability index came out at 3.14.
On the same count and under the same terms, with EEINKNISDFGRQQLLPPFPSLPQ [H23P] the figure was 3.17; with EEINKNISDFGRQQLLPPFPSLSQ [H23S], 2.86; with EEINKNISDFGRQQLLPPFPSLIQ [H23I], 2.93.
Same read-out and setting: the value for EEINKNISDFGRQQLLPPFPSLHH [Q24H] was 2.43.

These data come from the supplement of paper PMC10567573.
